# Measured values as given in the RNAGym collection of RNA variant scans (doi:10.1021/acssynbio.7b00057).
# B1: Pistol ribozyme (parent)
# chain: GGGUCGUUGUUCCAUAAUCGCGUGGAUAUGGCACGCAAGUUUCUACCGGGCACCGUAAAUGUCCGACUGGAGCCGUUCGGGCGGCUAUAAACAGACCUCAGGCCCGAAGCGUGGCGGCACCUGCCGCCGGUGGUAAAAAAGAUCGGAAGAGCACACGUCU
# Variants of: B1
# Assay: aptazyme ON/OFF ratio, guanine; higher = stronger switching; co-transcriptional cleavage with and without guanine
row,Variant,aptazyme ON/OFF ratio
1,GGGUCGCGCUGGAAUAAUCGCGUGGAUAUGGCACGCAAGUUUCUACCGGGCACCGUAAAUGUCCGACUGGAGCCGUUCGGGCGGCUAUAAACAGACCUCAGGCCCGAAGCGUGGCGGCACCUGCCGCCGGUGGUAAAAAAGAUCGGAAGAGCACACGUCU [U7C U8G G9C U11G C12G C13A],1.13
2,GGGUCGCGCUGGGAUAAUCGCGUGGAUAUGGCACGCAAGUUUCUACCGGGCACCGUAAAUGUCCGACUGGAGCCGUUCGGGCGGCUAUAAACAGACCUCAGGCCCGAAGCGUGGCGGCACCUGCCGCCGGUGGUAAAAAAGAUCGGAAGAGCACACGUCU [U7C U8G G9C U11G C12G C13G],1.1
3,GGGUCGCGCUGGUAUAAUCGCGUGGAUAUGGCACGCAAGUUUCUACCGGGCACCGUAAAUGUCCGACUGGAGCCGUUCGGGCGGCUAUAAACAGACCUCAGGCCCGAAGCGUGGCGGCACCUGCCGCCGGUGGUAAAAAAGAUCGGAAGAGCACACGUCU [U7C U8G G9C U11G C12G C13U],1.09
4,GGGUCGCGCUGCCAUAAUCGCGUGGAUAUGGCACGCAAGUUUCUACCGGGCACCGUAAAUGUCCGACUGGAGCCGUUCGGGCGGCUAUAAACAGACCUCAGGCCCGAAGCGUGGCGGCACCUGCCGCCGGUGGUAAAAAAGAUCGGAAGAGCACACGUCU [U7C U8G G9C U11G],1.2
5,GGGUCGCGUUUCCAUAAUCGCGUGGAUAUGGCACGCAAGUUUCUACCGGGCACCGUAAAUGUCCGACUGGAGCCGUUCGGGCGGCUAUAAACAGACCUCAGGCCCGAAGCGUGGCGGCACCUGCCGCCGGUGGUAAAAAAGAUCGGAAGAGCACACGUCU [U7C U8G G9U],3.71
6,GGGUCGCGUUUGCAUAAUCGCGUGGAUAUGGCACGCAAGUUUCUACCGGGCACCGUAAAUGUCCGACUGGAGCCGUUCGGGCGGCUAUAAACAGACCUCAGGCCCGAAGCGUGGCGGCACCUGCCGCCGGUGGUAAAAAAGAUCGGAAGAGCACACGUCU [U7C U8G G9U C12G],1.78
7,GGGUCGCGUUUACAUAAUCGCGUGGAUAUGGCACGCAAGUUUCUACCGGGCACCGUAAAUGUCCGACUGGAGCCGUUCGGGCGGCUAUAAACAGACCUCAGGCCCGAAGCGUGGCGGCACCUGCCGCCGGUGGUAAAAAAGAUCGGAAGAGCACACGUCU [U7C U8G G9U C12A],1.64
8,GGGUCGCGCUCCAAUAAUCGCGUGGAUAUGGCACGCAAGUUUCUACCGGGCACCGUAAAUGUCCGACUGGAGCCGUUCGGGCGGCUAUAAACAGACCUCAGGCCCGAAGCGUGGCGGCACCUGCCGCCGGUGGUAAAAAAGAUCGGAAGAGCACACGUCU [U7C U8G G9C U11C C13A],1.47
9,GGGUCGCGCUCCUAUAAUCGCGUGGAUAUGGCACGCAAGUUUCUACCGGGCACCGUAAAUGUCCGACUGGAGCCGUUCGGGCGGCUAUAAACAGACCUCAGGCCCGAAGCGUGGCGGCACCUGCCGCCGGUGGUAAAAAAGAUCGGAAGAGCACACGUCU [U7C U8G G9C U11C C13U],1.38
10,GGGUCGCGCUCCGAUAAUCGCGUGGAUAUGGCACGCAAGUUUCUACCGGGCACCGUAAAUGUCCGACUGGAGCCGUUCGGGCGGCUAUAAACAGACCUCAGGCCCGAAGCGUGGCGGCACCUGCCGCCGGUGGUAAAAAAGAUCGGAAGAGCACACGUCU [U7C U8G G9C U11C C13G],1.05
11,GGGUCGCGCUGCGAUAAUCGCGUGGAUAUGGCACGCAAGUUUCUACCGGGCACCGUAAAUGUCCGACUGGAGCCGUUCGGGCGGCUAUAAACAGACCUCAGGCCCGAAGCGUGGCGGCACCUGCCGCCGGUGGUAAAAAAGAUCGGAAGAGCACACGUCU [U7C U8G G9C U11G C13G],1.03
12,GGGUCGCGCUGCUAUAAUCGCGUGGAUAUGGCACGCAAGUUUCUACCGGGCACCGUAAAUGUCCGACUGGAGCCGUUCGGGCGGCUAUAAACAGACCUCAGGCCCGAAGCGUGGCGGCACCUGCCGCCGGUGGUAAAAAAGAUCGGAAGAGCACACGUCU [U7C U8G G9C U11G C13U],1.15
13,GGGUCGCGCUGCAAUAAUCGCGUGGAUAUGGCACGCAAGUUUCUACCGGGCACCGUAAAUGUCCGACUGGAGCCGUUCGGGCGGCUAUAAACAGACCUCAGGCCCGAAGCGUGGCGGCACCUGCCGCCGGUGGUAAAAAAGAUCGGAAGAGCACACGUCU [U7C U8G G9C U11G C13A],1.18
14,GGGUCGCGCUCGCAUAAUCGCGUGGAUAUGGCACGCAAGUUUCUACCGGGCACCGUAAAUGUCCGACUGGAGCCGUUCGGGCGGCUAUAAACAGACCUCAGGCCCGAAGCGUGGCGGCACCUGCCGCCGGUGGUAAAAAAGAUCGGAAGAGCACACGUCU [U7C U8G G9C U11C C12G],1.67
15,GGGUCGCGCUCUCAUAAUCGCGUGGAUAUGGCACGCAAGUUUCUACCGGGCACCGUAAAUGUCCGACUGGAGCCGUUCGGGCGGCUAUAAACAGACCUCAGGCCCGAAGCGUGGCGGCACCUGCCGCCGGUGGUAAAAAAGAUCGGAAGAGCACACGUCU [U7C U8G G9C U11C C12U],1.33
16,GGGUCGCGCUCUAAUAAUCGCGUGGAUAUGGCACGCAAGUUUCUACCGGGCACCGUAAAUGUCCGACUGGAGCCGUUCGGGCGGCUAUAAACAGACCUCAGGCCCGAAGCGUGGCGGCACCUGCCGCCGGUGGUAAAAAAGAUCGGAAGAGCACACGUCU [U7C U8G G9C U11C C12U C13A],1.15
17,GGGUCGCGCUCUGAUAAUCGCGUGGAUAUGGCACGCAAGUUUCUACCGGGCACCGUAAAUGUCCGACUGGAGCCGUUCGGGCGGCUAUAAACAGACCUCAGGCCCGAAGCGUGGCGGCACCUGCCGCCGGUGGUAAAAAAGAUCGGAAGAGCACACGUCU [U7C U8G G9C U11C C12U C13G],1.07
18,GGGUCGCGCUCUUAUAAUCGCGUGGAUAUGGCACGCAAGUUUCUACCGGGCACCGUAAAUGUCCGACUGGAGCCGUUCGGGCGGCUAUAAACAGACCUCAGGCCCGAAGCGUGGCGGCACCUGCCGCCGGUGGUAAAAAAGAUCGGAAGAGCACACGUCU [U7C U8G G9C U11C C12U C13U],1.07

row,Variant,aptazyme ON/OFF ratio
1,GGGUCGCGCUCGUAUAAUCGCGUGGAUAUGGCACGCAAGUUUCUACCGGGCACCGUAAAUGUCCGACUGGAGCCGUUCGGGCGGCUAUAAACAGACCUCAGGCCCGAAGCGUGGCGGCACCUGCCGCCGGUGGUAAAAAAGAUCGGAAGAGCACACGUCU [U7C U8G G9C U11C C12G C13U],1.27
2,GGGUCGCGCUCGAAUAAUCGCGUGGAUAUGGCACGCAAGUUUCUACCGGGCACCGUAAAUGUCCGACUGGAGCCGUUCGGGCGGCUAUAAACAGACCUCAGGCCCGAAGCGUGGCGGCACCUGCCGCCGGUGGUAAAAAAGAUCGGAAGAGCACACGUCU [U7C U8G G9C U11C C12G C13A],1.4
3,GGGUCGCGCUCGGAUAAUCGCGUGGAUAUGGCACGCAAGUUUCUACCGGGCACCGUAAAUGUCCGACUGGAGCCGUUCGGGCGGCUAUAAACAGACCUCAGGCCCGAAGCGUGGCGGCACCUGCCGCCGGUGGUAAAAAAGAUCGGAAGAGCACACGUCU [U7C U8G G9C U11C C12G C13G],1.08
4,GGGUCGCGCUGAUAUAAUCGCGUGGAUAUGGCACGCAAGUUUCUACCGGGCACCGUAAAUGUCCGACUGGAGCCGUUCGGGCGGCUAUAAACAGACCUCAGGCCCGAAGCGUGGCGGCACCUGCCGCCGGUGGUAAAAAAGAUCGGAAGAGCACACGUCU [U7C U8G G9C U11G C12A C13U],1.14
5,GGGUCGCGCUGAAAUAAUCGCGUGGAUAUGGCACGCAAGUUUCUACCGGGCACCGUAAAUGUCCGACUGGAGCCGUUCGGGCGGCUAUAAACAGACCUCAGGCCCGAAGCGUGGCGGCACCUGCCGCCGGUGGUAAAAAAGAUCGGAAGAGCACACGUCU [U7C U8G G9C U11G C12A C13A],1.14
6,GGGUCGCGCUGAGAUAAUCGCGUGGAUAUGGCACGCAAGUUUCUACCGGGCACCGUAAAUGUCCGACUGGAGCCGUUCGGGCGGCUAUAAACAGACCUCAGGCCCGAAGCGUGGCGGCACCUGCCGCCGGUGGUAAAAAAGAUCGGAAGAGCACACGUCU [U7C U8G G9C U11G C12A C13G],1.18
7,GGGUCGCGCUCAUAUAAUCGCGUGGAUAUGGCACGCAAGUUUCUACCGGGCACCGUAAAUGUCCGACUGGAGCCGUUCGGGCGGCUAUAAACAGACCUCAGGCCCGAAGCGUGGCGGCACCUGCCGCCGGUGGUAAAAAAGAUCGGAAGAGCACACGUCU [U7C U8G G9C U11C C12A C13U],2.13
8,GGGUCGCGCUGUGAUAAUCGCGUGGAUAUGGCACGCAAGUUUCUACCGGGCACCGUAAAUGUCCGACUGGAGCCGUUCGGGCGGCUAUAAACAGACCUCAGGCCCGAAGCGUGGCGGCACCUGCCGCCGGUGGUAAAAAAGAUCGGAAGAGCACACGUCU [U7C U8G G9C U11G C12U C13G],1.21
9,GGGUCGCGCUGUUAUAAUCGCGUGGAUAUGGCACGCAAGUUUCUACCGGGCACCGUAAAUGUCCGACUGGAGCCGUUCGGGCGGCUAUAAACAGACCUCAGGCCCGAAGCGUGGCGGCACCUGCCGCCGGUGGUAAAAAAGAUCGGAAGAGCACACGUCU [U7C U8G G9C U11G C12U C13U],1.37
10,GGGUCGCGCUGUAAUAAUCGCGUGGAUAUGGCACGCAAGUUUCUACCGGGCACCGUAAAUGUCCGACUGGAGCCGUUCGGGCGGCUAUAAACAGACCUCAGGCCCGAAGCGUGGCGGCACCUGCCGCCGGUGGUAAAAAAGAUCGGAAGAGCACACGUCU [U7C U8G G9C U11G C12U C13A],1.2
11,GGGUCGCGUUUGGAUAAUCGCGUGGAUAUGGCACGCAAGUUUCUACCGGGCACCGUAAAUGUCCGACUGGAGCCGUUCGGGCGGCUAUAAACAGACCUCAGGCCCGAAGCGUGGCGGCACCUGCCGCCGGUGGUAAAAAAGAUCGGAAGAGCACACGUCU [U7C U8G G9U C12G C13G],1.25
12,GGGUCGCGUUUGAAUAAUCGCGUGGAUAUGGCACGCAAGUUUCUACCGGGCACCGUAAAUGUCCGACUGGAGCCGUUCGGGCGGCUAUAAACAGACCUCAGGCCCGAAGCGUGGCGGCACCUGCCGCCGGUGGUAAAAAAGAUCGGAAGAGCACACGUCU [U7C U8G G9U C12G C13A],1.17
13,GGGUCGCGUUUAGAUAAUCGCGUGGAUAUGGCACGCAAGUUUCUACCGGGCACCGUAAAUGUCCGACUGGAGCCGUUCGGGCGGCUAUAAACAGACCUCAGGCCCGAAGCGUGGCGGCACCUGCCGCCGGUGGUAAAAAAGAUCGGAAGAGCACACGUCU [U7C U8G G9U C12A C13G],1.27
14,GGGUCGCGUUUAUAUAAUCGCGUGGAUAUGGCACGCAAGUUUCUACCGGGCACCGUAAAUGUCCGACUGGAGCCGUUCGGGCGGCUAUAAACAGACCUCAGGCCCGAAGCGUGGCGGCACCUGCCGCCGGUGGUAAAAAAGAUCGGAAGAGCACACGUCU [U7C U8G G9U C12A C13U],1.37
15,GGGUCGCGUUUAAAUAAUCGCGUGGAUAUGGCACGCAAGUUUCUACCGGGCACCGUAAAUGUCCGACUGGAGCCGUUCGGGCGGCUAUAAACAGACCUCAGGCCCGAAGCGUGGCGGCACCUGCCGCCGGUGGUAAAAAAGAUCGGAAGAGCACACGUCU [U7C U8G G9U C12A C13A],1.42
16,GGGUCGCGCUGUCAUAAUCGCGUGGAUAUGGCACGCAAGUUUCUACCGGGCACCGUAAAUGUCCGACUGGAGCCGUUCGGGCGGCUAUAAACAGACCUCAGGCCCGAAGCGUGGCGGCACCUGCCGCCGGUGGUAAAAAAGAUCGGAAGAGCACACGUCU [U7C U8G G9C U11G C12U],1.23
17,GGGUCGCGCUGACAUAAUCGCGUGGAUAUGGCACGCAAGUUUCUACCGGGCACCGUAAAUGUCCGACUGGAGCCGUUCGGGCGGCUAUAAACAGACCUCAGGCCCGAAGCGUGGCGGCACCUGCCGCCGGUGGUAAAAAAGAUCGGAAGAGCACACGUCU [U7C U8G G9C U11G C12A],1.12
18,GGGUCGCGCUGGCAUAAUCGCGUGGAUAUGGCACGCAAGUUUCUACCGGGCACCGUAAAUGUCCGACUGGAGCCGUUCGGGCGGCUAUAAACAGACCUCAGGCCCGAAGCGUGGCGGCACCUGCCGCCGGUGGUAAAAAAGAUCGGAAGAGCACACGUCU [U7C U8G G9C U11G C12G],1.19
